From patent US20230285581A1 (published 2023)

T1: full length monkey MSR1 on HEK293.mfMSR1 cells (Macaca fascicularis, UniProt A0A2K5UWE2 1-451)
T1 construct: whole, on cells
T1 sequence: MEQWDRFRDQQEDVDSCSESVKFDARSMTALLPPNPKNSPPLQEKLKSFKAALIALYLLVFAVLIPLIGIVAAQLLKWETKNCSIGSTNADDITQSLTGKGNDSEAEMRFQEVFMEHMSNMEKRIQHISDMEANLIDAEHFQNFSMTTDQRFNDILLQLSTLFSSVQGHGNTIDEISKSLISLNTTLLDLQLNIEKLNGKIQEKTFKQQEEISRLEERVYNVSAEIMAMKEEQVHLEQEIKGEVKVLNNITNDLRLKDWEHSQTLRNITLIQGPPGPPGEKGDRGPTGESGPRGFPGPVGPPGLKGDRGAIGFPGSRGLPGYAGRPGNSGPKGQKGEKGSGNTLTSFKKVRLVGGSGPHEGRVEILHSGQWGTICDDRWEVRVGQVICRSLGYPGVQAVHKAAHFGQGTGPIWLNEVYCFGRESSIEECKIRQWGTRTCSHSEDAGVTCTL

T2: mouse MSR1 extracellular domain expressed with a N-terminal nonahistidine tag (mouse, UniProt P30204 79-458)
T2 construct: extracellular domain; Bought reagent; also called His9-mMSR1
T2 sequence: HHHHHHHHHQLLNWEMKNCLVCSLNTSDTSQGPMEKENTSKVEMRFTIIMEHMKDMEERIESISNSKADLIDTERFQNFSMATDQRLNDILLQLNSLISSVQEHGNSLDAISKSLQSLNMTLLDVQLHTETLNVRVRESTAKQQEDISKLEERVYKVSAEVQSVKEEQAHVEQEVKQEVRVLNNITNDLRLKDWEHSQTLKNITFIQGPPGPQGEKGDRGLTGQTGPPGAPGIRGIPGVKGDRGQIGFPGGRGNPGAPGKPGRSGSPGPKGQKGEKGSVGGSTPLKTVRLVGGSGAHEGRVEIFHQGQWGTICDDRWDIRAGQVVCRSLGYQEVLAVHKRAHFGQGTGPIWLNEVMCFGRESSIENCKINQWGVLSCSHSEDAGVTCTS

B1: H1xH29282P2 (antibody, V domains shown)
VH: EVQLVESGGGLVQPGGSLRLSCAASGFTFSTYAMSWVRQAPGKGLEWVSTISGRSDITYFADSVKGRFTVSRDNSKTTLYLQMNSLRAEDTAVYYCATDDDLPLDYWGQGTLVTVSS
VL: not shown
notes: the prefix H1xH is not explained for the anti-MSR1 antibodies
B2: H1H21234N-N297Q (antibody, human IgG1, V domains shown)
VH: QVQLQESGPGLVKPSETLSLTCTVTGGSISRNYWSWIRQPPGKGLEWIGYIYYSGSIDYNPSLKSRVTISVDTSKNQFSLKLSSMTAADTAVYYCARDRWNWKYGMDVWGQGTTVIVSS
VL: EIVLTQSPGTLSLSPGERATLSCRASQTVRNNYLAWYHQKPGQAPRLLIYGASSRATGIPDRFSGSGSGTDFTLTISRLEPEDFTVYYCHQYGNSPWTFGQGTKMEIKR
notes: human IgG1 Fc with N297Q
B3: H1H21234N (antibody, human IgG1, V domains shown)
VH: B2 VH
VL: B2 VL
notes: original human IgG1 Fc
B4: H2aM21229N (antibody, mouse IgG2a, V domains shown)
VH: EVQLVESGGGLVKPGGSLRLSCAASGFTFSRYSMNWVRQAPGKGLEWVSSISSSSSYIYYGDTVKGRFTISRDNAKKSLYLQMNSLRAEDTAVYYCVRDRGQLVLYFDYWGQGTLVTVSS
VL: DIQMTQSPASLSTSIRDRVTITCRASLSISSFLNWFQQRPGKAPKLLIYVASNLQSGVPSRFSDSGSGTDFTLTISSLQPEDFATYYCQQNYSTPPITFGQGTRLEIK
notes: mouse IgG2a Fc (H2aM)
B5: H1H27766P2-N297Q (antibody, human IgG1, V domains shown)
VH: EVQLVESGGGLVQPGGSLRLSCAASGFTFSSFAMSWVRQAPGKELEWVSSISGRGGSTYYADSVRGRFTISRDNSKITLYLQMNSLRAEDTAVYYCAKDIVFRYTSSAYWYFDLWGRGTLVTVSS
VL: not shown
notes: human IgG1 Fc with N297Q; also called H1H27766P-N297Q

Assays:
[1] = target: T1, full length monkey MSR1 on …; test: ECL cell binding, HEK293.mfMSR1 cells
[2] = target: T2, mouse MSR1 extracellular domain …; test: BLI (Octet), 25C, mAb captured; no dissociation seen, kd fixed at 5.00E-05
Procedure: Binding affinities and kinetic constants of human anti-MSR1 antibodies for different MSR1 reagents were determined using a real time, label-free bio-layer interferometry assay on an OCTET® HTX biosensor platform (Pall FortéBio Corp., Menlo Park, Calif.). The experiment was performed at 25° C. in 10 mM HEPES, 150 mM NaCl, 3 mM EDTA, 0.05% v/v Surfactant Tween-20, and 1 mg/mL BSA, pH7.4 (HBS-EBT) buffer with the plate shaking at the speed of 1000 rpm. […] The anti-MSR1 monoclonal antibodies were captured by dipping either anti-human Fc (AHC) or anti-mouse Fc (AMC) Octet biosensors in wells containing 5 μg/mL or 10 μg/mL of anti-MSR1 monoclonal antibody for 45-90 seconds. […] The binding of different MSR1 reagents to the captured anti-MSR1 monoclonal antibody was measured for 4 minutes and the dissociation of monoclonal antibody bound MSR1 reagent was monitored for 8-10 minutes in HBS-EBT buffer.
The association rate (kₐ) and dissociation rate (kd) were determined by fitting the real-time binding sensorgrams to a 1:1 binding model with mass transport limitation using Scrubber 2.0c curve-fitting software. Binding dissociation equilibrium constant (KD) and dissociative half-life (t½) were calculated from the kinetic rates as:

Binder | ratio of 11 nM antibody binding signal (RLU) to isotype control [1] [ratio] | t½ [2] [h]
B1 | 1 | 
B2 |  | ≥ 3.85
B3 |  | ≥ 3.85
B4 | 27 | 
B5 | 13 | 
